Measured values as given in article PMC4795942 (Protein Engineering, Design and Selection, 2016).
Residue numbers refer to the chain shown, from its start. Names may count otherwise. Blank lines part the entries; values can stand above or below the binder they belong to.

Molecular target: biotinylated MmQSOX1Trx with a carboxy-terminal AviTag (Mus musculus, UniProt Q8BND5, biotin (on the AviTag))
Test: flow cytometry on cells

binding result: binds
B1: scFv492.1 template c with H49S S50M Y52Q (top binder of the CDR L2 library) displayed on yeast (scFv, V domains shown)
VH: QVQLKQSGPGLVAPSQSLSITCTVSGFSLTGYGVNWVRQSPGKGLEWLGMIWGDGRTEYKSALKSRLSITKDNSKSQVFLKMNSLQTDDTARYFCASDSKDPGSFAYWGQGTLVTVSA
VL: DVVMTQTHKFMSTSVGDRVSITCKASQDVSTAVAWYQQKSGQSPKLLISMASQRYTGVPDRFTGSGSGTDFTFTISSVQAEDLAVYYCQQHYAIPLTFGAGTKLELK

binding result: binds
B2: scFv492.1 S93A Y99S Y100K G101D S102P D58E T31G H49S S50M Y52Q (mutant d) displayed on yeast (scFv, V domains shown)
VH: B1 VH
VL: B1 VL with T31G
